Target: H. pylori-bullfrog recombinant ferritin (ferritin nanoparticle) (bullfrog (Rana catesbeiana) | Helicobacter pylori)
Assay: SEC; concentrated supernatant (100-kDa MWCO TFF) on Superdex 200 Increase 10/300 GL, degassed PBS, 0.4 ml/min; size from LMW/HMW calibration standards; self-assembly of the monomer into the nanoparticle

H. pylori-bullfrog recombinant ferritin (ferritin nanoparticle)
stoichiometry N: 24
